Target: Recombinant hemagglutinin of H3N2 A/Texas/50/2012, ectodomain, monomeric (Influenza A virus A/Texas/50/2012 (H3N2), UniProt R4L1D1, strain)
Assay: SPR
Conditions: both partners purified

B1: AF4H1K1 Fab (Fab, V domains shown)
VH: QVQLVESGGGVVQPGTSLRLSCEASGFTSSAYAMHWVRQAPGKGLEWVAVITFDGGYQYYADSVKGRFTISRDISRNTLHLHMNSLRAEDTAVYYCARDPLTKLLPFDWVSGGYFDYWGQGTLVTVSS
VL: not shown
notes: also called H1 paired with K1
- Kd: 49 nM

— PMC6465249 (Cell Discovery, 2019)
